Laboratory results: the RNAGym collection of RNA variant scans (doi:10.1073/pnas.2313332121)

B1: TPR t1 (parent)
chain: GACCAAUCUGCCCUCAGAGCUCGAGAACAUCUUCGGAUGCAGAGGAGGCAGGCUUCGGUGGCGCGAUAGCGCCAACGUCCUCAACCUCCAAUGCAUCCCACCACAUGAUGAUGCCUGAAGAGCCUUGGUUUUUUG

Variants of: B1
Experiment: polymerase ribozyme fitness, log enrichment relative to wild type (log ratio); higher = more active; in vitro selection for triplet polymerase activity
Summary of the method: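 PCR was used to build mutant libraries for each subunit of a heterodimeric triplet polymerase ribozyme, which were then transcribed. A single in vitro selection round, in triplicate, used a frozen incubation at −7 °C and recovered extended constructs by gel excision, streptavidin beads and RT-PCR. Fitness is the logarithm of genotype enrichment relative to wild-type enrichment, averaged over replicates with inverse-variance weights. The logarithm is base 2, and after Illumina sequencing only genotypes with ≥10 input reads and ≥1 read per output were kept.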

In order of rising “polymerase ribozyme fitness (log ratio)” value:
1. GACCAAUCUGCACUCAGAGCUCGAGAACAUCUUCGGAUGCAGAGGAGGCAGGCUUCGGUGGCGGGAUAGCGCCAACGUCCUCAACCUCCAAUGCAUCGCACCUCAUGAUGAUGCCUGAGGAGCCUUGGUUUUUUG [C12A C64G C98G A103U A119G]  -6.93
2. GACCAAUCUGCACUCAGAGCUCGAGAAGAUCUUAGGAUGCAGAGGAGGCAGGCUUCGGUGGCGCGAUAGCGCCAACGUCUUCAACCUCCAAUGCAUCCCACCACAUGAUGAUGCCUGAAGAGACUUGGUUUUUUG [C12A C28G C34A C80U C123A]  -6.06
3. GACCAAUCUGCACUCAGAGCUCGAGAACAUCUUCGGAUGAAGAGGAGGCAGGCUUCGGUGGCGCGAUAGCGCCAACGUCCUCAACAUCCAAUGCAUCCCAUCACAGGAUGAUGCCUGAAGAGCCUUGGUUUUUUG [C12A C40A C86A C101U U106G]  -5.32
4. GACCAAUCUGCACUCAGAGCUCGAGAACAUCUUCGGAUGCAGAGGAGGCAGGCUUCGGUGGCGAGAUAGCGCCAACGUCCUCAACCUCCAAUGCAUCCCACCACAUGAUGAUGCCUGAAGAGCCUUGGUUUUUUG [C12A C64A]  -5.04
5. GACCAAUCUGCACUCAGAGCUCGAGAACAUCUUCGGAUGUAGAGGAGGCAGGCUUCGGUGGCGCGAUAGCGCCAACGUCCUCAACCUCAAAUGCAUCCCACCACAUGAUGAUGCCUGAAGAGCCAUGGUGUUUUG [C12A C40U C89A U125A U130G]  -5
6. GACCAAUCUGCACUCAGAGCUCGAGAACAUCUUCGGAUGCAGAGGAGGCAGGCUUCGGUGGCGCGAUAGAGCCAACGUCCUCAAGCUCCAAUGCAUCCCACCACAUGAUGAUGCCCGAAGAGCCUUGGUUUUUUG [C12A C70A C85G U116C]  -4.83
7. GACCAAUCUGCACUCAGAGCUUGAGAACAUCUUCGGAUGCAGAGGAGGCAGGCUUUGGUGGCGCGAUAGCGCCAACGUCCUCCACCUCCAAUGCAUCCCACCACAUGAUGAUGCCUGAAGAGCCAUGGUUUUUUG [C12A C22U C56U A83C U125A]  -4.56
8. GACCAAUCUGCACUCAGAGCUCGAGAACAUCUUCGGAUGUAGAGGAGGCAGGCUUCGGUGGCGCGAUAGCGCCAACGUCCUCAACCUCCAAUGCAUCCUACCACAUGAUGAUGCCUGAAGAGCCUUGGUUUUUUG [C12A C40U C99U]  -4.15
9. GACCAAUCUGCACUUAGAGCUCGAGAACAUCUUCGGAUGCAGAGGAGCCAGGCUUCGGUGGCGCGAUAGCGCCAACGUCCUCAACCUCCAACGCAACCCACCACAUGAUGAUGCCUGAAGAACCUUGGUUUUUUG [C12A C15U G48C U92C U96A G122A]  -4.12
10. GACCAAUCUGCACUCAGAGCUCGAGAACAUCUUCGGAUGCAGAGGAGGCAGGCUUCGGUGGUGCGAUAGCGCCAACGUCCUCGACCUCCAAUGCAUCCCCCCACAUGAUGAUGCCUGAAGAGCCUUGGUUUUUUG [C12A C62U A83G A100C]  -3.89
11. GACCAAUCUGCACUCAGAGCUCGAGAACAUCUUCGGAUGCAGAGGAGGCAGGCUUCGGUGGCGCGAUAGCGCCAACGUCCUCAAGCUCCAAUGCAUCCCACCACAUGAUGAUGCCUGAAGAGCCUUGGUUUUUUG [C12A C85G]  -2.79
12. GACCAAUCUGCACUCAGAGCUCGAGAAUAUCUUCGGAUGCAGAGGAGGCAGGCUUCGGUGGCCCGAUAGCGCCAACGUCCUCAACCUCCAAUGCAUCCCACCACAUGAUGAUGCCUGAAGAGCCUUGGUUUUUUG [C12A C28U G63C]  -2.37
13. GACCAAUCUGCACUCAGAGCUCGAGAACAUCUUCGGAUGCAGAGGAGGCAGGCUUCGGUGGCGCGAUAGAGCCAACGUCCUCAACCUCCAAUGCAUCCCACCACAUGAUGAUGCCUGAAGAGCCUUUGUUUUUUG [C12A C70A G127U]  -2.31
14. GACCAAUCUGCACUCAGAGCUCGAGAACAUCUUCGGAUGCAGAGGAGGCAGGUUUGGGUGGCGCGAUAGCGCCAACGUCCUCAACCUCCAAUGCAUCCCACCACAUGAUGAUGCCUGAAGAGCCUUGGUUUUUUA [C12A C53U C56G G135A]  -2.18
15. GACCAAUCUGCACUCAGAGCUCGAGAACAUCUUCGGAUGCAGAGGAGGCAGGCUUCGGUGGCGCGAUAGCGUCAACGUCCUCAACCUCCAAUGCAUCCCUCCACAUGAUGAUGCCUGAAGAGCCUUGGUUUUUUG [C12A C72U A100U]  -2.13
16. GACCAAUCUGCACUCAGAGCUCGAGAACAUCUUCGGAUGAAGAGGAGGCAGGCUUCGGUGGCGCGAUAGCGACAACGUCCUCAACCUCCAAUGCAUCCCACCACAUGAUGAUGCCUGAAGAGCCUUGGUAUUUUG [C12A C40A C72A U130A]  -2.02
17. GACCAAUCUGCACUCAGAGCUCGAGAACAUCUUCGGAUGCAGAGGAGGCAGGCUUCGGUGGCGCGAUAGCGCCAACGUCCUCAUCCUCCAAUGCAUCCCACCACAUGAUGAUGCCUGAAGAGCCUUGGUAUUUUG [C12A A84U U130A]  -1.77
18. GACCAAUCUGCACUCAGAGCUCGAGAACAUCUUCGGAUGCAGAGGAGGCAGGCUUCGGUGGCGCGAUAGCGUCAACGUCCUCAACCUCCAAUGCAUCCCCCCACAUGAUGAUGCCUGAAGAGCCUUGGUUUUGUG [C12A C72U A100C U133G]  -1.76
19. GACCAAUCUGCAAUCAGAGCUCGAGAACAUCUUCGGAUGCAGAGGAGGCAGGCUUCGGUGGCGCGAUAGCGUCAACGUCCUCAACCUCCAACGCAUCCCACCACAUGAUGAUGCCUAAAGUGUCUUGGUUUUUUG [C12A C13A C72U U92C G117A A121U C123U]  -1.56
20. GACCAAUCUGCACUCAGAGAUCGAGAACAUCUUCGGAUGCAGAGGAGGCAGGCUUCGGUGUCGCGAUAGCGCCAACGUCCUCAACCUCCAAUGCAUCCCACCACAUGAUGAUGCCUGAAAAGCCUUGGUUUUUUG [C12A C20A G61U G120A]  -1.21
21. GACCAAUCUGCACUCAGAGCUCGAGAACAUCUUCGGAUGUAGAGGAGGCAGGCUUCGGAGGCGCGAUAGCGCCAACGUCCUCAACCUCCAAUGCAUCCCACCACAUGAUGGUGCCUGAAGAGCAUUGGUUUUUUG [C12A C40U U59A A111G C124A]  -0.777
